In test [1] the target is human HER3 (purchased from Acro Bio) (human, UniProt P21860 20-643). Description: BLI (Octet384), antibody captured on AHC tips, HER3 (Acro Bio) 0-100 nM in solution, global 1:1 fit.
Test [2] concerns the target T1, His-tagged human EGFR (expressed/purified in-house) (human, UniProt P00533 25-645, limits assumed).
T1 construct: Made in-house; also called ErbB1; HER1; not shown: His tag
Kind of test: BLI (Octet384), antibody captured on AHC tips, His-tagged EGFR 0-100 nM in solution, global 1:1 fit.

The values that follow come from patent US20240309099A1 (SYSTIMMUNE, published 2024).

B1: SI-1X26 (bispecific antibody)
heavy: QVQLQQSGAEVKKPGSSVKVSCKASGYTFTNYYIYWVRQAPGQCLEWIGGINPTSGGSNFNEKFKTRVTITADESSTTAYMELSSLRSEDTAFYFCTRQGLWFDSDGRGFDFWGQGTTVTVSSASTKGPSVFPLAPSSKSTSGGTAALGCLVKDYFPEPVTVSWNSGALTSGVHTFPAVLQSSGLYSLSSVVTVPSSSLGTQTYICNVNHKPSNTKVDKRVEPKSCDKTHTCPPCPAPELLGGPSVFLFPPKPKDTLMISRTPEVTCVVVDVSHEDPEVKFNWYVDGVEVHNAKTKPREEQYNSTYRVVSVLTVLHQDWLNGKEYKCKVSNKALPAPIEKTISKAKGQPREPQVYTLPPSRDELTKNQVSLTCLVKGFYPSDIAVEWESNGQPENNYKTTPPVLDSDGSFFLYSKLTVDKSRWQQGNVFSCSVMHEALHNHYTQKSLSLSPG
light: DIQMTQSPSSLSASVGDRVTITCRSSQNIVHSNGNTYLDWYQQTPGKAPKLLIYKVSNRFSGVPSRFSGSGSGTDFTFTISSLQPEDIATYYCFQYSHVPWTFGCGTKLQITRTVAAPSVFIFPPSDEQLKSGTASVVCLLNNFYPREAKVQWKVDNALQSGNSQESVTEQDSKDSTYSLSSTLTLSKADYEKHKVYACEVTHQGLSSPVTKSFNRGECGGGGSGGGGSGGGGSQVQLQESGGGLVKPGGSLSLSCAASGFTFSSYWMSWVRQAPGKGLEWVANINRDGSASYYVDSVKGRFTISRDDAKNSLYLQMNSLRAEDTAVYYCARDRGVGYFDLWGRGTLVTVSSGGGGSGGGGSGGGGSQSALTQPASVSGSPGQSITISCTGTSSDVGGYNFVSWYQQHPGKAPKLMIYDVSDRPSGVSDRFSGSKSGNTASLIISGLQADDEADYYCSSYGSSSTHVIFGGGTKVTVL
notes: scFv on the C-terminus of the light chain; also called EGFRxHER3 bispecific antibody; nimotuzumab-based bispecific antibody
In test [1], B1 displayed a dissociation constant (Kd) of 151 nM, a Response of 0.294, a koff of 0.0308 s⁻¹ and a kon of 204000 M⁻¹ s⁻¹. Moreover, in test [2], the Kd stood at 11.4 nM, the Response is 0.194, the koff amounted to 0.000627 s⁻¹ and the kon came to 55100 M⁻¹ s⁻¹.

B2: SI-1X4 (bispecific antibody)
heavy: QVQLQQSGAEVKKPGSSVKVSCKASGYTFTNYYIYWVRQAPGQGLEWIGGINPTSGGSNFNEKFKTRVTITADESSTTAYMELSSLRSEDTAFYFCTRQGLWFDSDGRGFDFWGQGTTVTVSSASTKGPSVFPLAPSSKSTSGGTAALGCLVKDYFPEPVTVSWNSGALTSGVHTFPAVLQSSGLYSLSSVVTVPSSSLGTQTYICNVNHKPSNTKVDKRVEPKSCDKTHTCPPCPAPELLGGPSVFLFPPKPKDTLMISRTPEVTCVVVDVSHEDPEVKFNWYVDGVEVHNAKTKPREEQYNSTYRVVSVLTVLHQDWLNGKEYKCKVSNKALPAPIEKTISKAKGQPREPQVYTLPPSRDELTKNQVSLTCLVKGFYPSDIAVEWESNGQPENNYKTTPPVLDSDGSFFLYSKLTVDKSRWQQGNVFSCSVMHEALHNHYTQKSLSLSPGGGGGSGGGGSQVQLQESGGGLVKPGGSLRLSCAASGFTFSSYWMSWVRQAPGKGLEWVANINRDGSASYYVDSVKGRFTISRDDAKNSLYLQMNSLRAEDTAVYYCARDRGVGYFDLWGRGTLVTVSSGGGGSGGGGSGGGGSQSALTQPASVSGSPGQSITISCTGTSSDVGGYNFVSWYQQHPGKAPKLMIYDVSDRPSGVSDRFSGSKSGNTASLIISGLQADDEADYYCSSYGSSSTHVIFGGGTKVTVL
light: DIQMTQSPSSLSASVGDRVTITCRSSQNIVHSNGNTYLDWYQQTPGKAPKLLIYKVSNRFSGVPSRFSGSGSGTDFTFTISSLQPEDIATYYCFQYSHVPWTFGQGTKLQITRTVAAPSVFIFPPSDEQLKSGTASVVCLLNNFYPREAKVQWKVDNALQSGNSQESVTEQDSKDSTYSLSSTLTLSKADYEKHKVYACEVTHQGLSSPVTKSFNRGEC
notes: Tetravalent IgG-scFv: anti-EGFR Fab with nimotuzumab variable regions, anti-HER3 scFv at the C-terminus of the heavy chain; also called EGFRxHER3 bispecific antibody; nimotuzumab-based bispecific antibody
In test [1], B2 gave a Kd of 156 nM, a Response of 0.264, a koff of 0.0281 s⁻¹ and a kon of 180000 M⁻¹ s⁻¹. In test [2], binding was put at a Kd of 23.8 nM, the Response came to 0.171, the koff is 0.00171 s⁻¹ and the kon stood at 71600 M⁻¹ s⁻¹.
